Data as given in US6689567 (UNIVERSITY OF GUELPH, dated 2004).

Biological target: the molecule itself
Assay: gel filtration on G100 Sephadex; self-association (homodimer)

B1: FlaA1 from Helicobacter pylori carrying a N-terminal hexahistidine tag (enzyme)
chain: MHHHHHHGSMSMPNHQNMLDNQTILITGGTGSFGKCFVRKVLDTTNAKKIIVYSRDELKQSEMAMEFNDPRMRFFIGDVRDLERLNYALEGVDICIHAAALKHVPIAEYNPLECIKTNIMGASNVINACLKNAISQVIALSTDKAANPINLYGATKLCSDKLFVSANNFKGSSQTQFSVVRYGNVVGSRGSVVPFFKKLVQNKASEIPITDIRMTRFWITLDEGVSFVLKSLKRMHGGEIFVPKIPSMKMTDLAKALAPNTPTKIIGIRPGEKLHEVMIPKDESHLALEFEDFFIIQPTISFQTPKDYTLTKLHEKGQKVAPDFEYSSHNNNQWLEPDDLLKLL
notes: Full-length FlaA1 with an N-terminal hexahistidine tag, overexpressed in E. coli (pET system) and purified; also called HP0840; His-FlaA1
B1: binds.
